According to US12467929:

Columns and labels:
[1] = target: recombinant UBE3A protein (Homo sapiens (Human)) (UniProt Q05086); experiment: 2-step Simoa; capture MS 3E5; UBE3A 0.1 ng/ml
[2] = target: recombinant UBE3A protein (Homo sapiens (Human)) (UniProt Q05086); experiment: 3-step Simoa; capture GTX; UBE3A 1 ng/ml
[3] = target: recombinant UBE3A protein (Homo sapiens (Human)) (UniProt Q05086); experiment: 2-step Simoa; capture GTX; UBE3A 1 ng/ml
[4] = target: recombinant UBE3A protein (Homo sapiens (Human)) (UniProt Q05086); experiment: 3-step Simoa; capture GTX; UBE3A 0.01 ng/ml
[5] = target: recombinant UBE3A protein (Homo sapiens (Human)) (UniProt Q05086); experiment: 2-step Simoa; capture MS 3E5; UBE3A 1 ng/ml
[6] = target: recombinant UBE3A protein (Homo sapiens (Human)) (UniProt Q05086); experiment: 3-step Simoa; capture MS 3E5; UBE3A 0.1 ng/ml
[7] = target: recombinant UBE3A protein (Homo sapiens (Human)) (UniProt Q05086); experiment: 3-step Simoa; capture Novus; UBE3A 0.1 ng/ml
[8] = target: recombinant UBE3A protein (Homo sapiens (Human)) (UniProt Q05086); experiment: 2-step Simoa; capture GTX; UBE3A 0.01 ng/ml
[9] = target: recombinant UBE3A protein (Homo sapiens (Human)) (UniProt Q05086); experiment: 2-step Simoa; capture Novus; UBE3A 10 ng/ml
[10] = target: recombinant UBE3A protein (Homo sapiens (Human)) (UniProt Q05086); experiment: 3-step Simoa; capture MS 3E5; UBE3A 1 ng/ml
[11] = target: recombinant UBE3A protein (Homo sapiens (Human)) (UniProt Q05086); experiment: 3-step Simoa; capture MS 3E5; UBE3A 10 ng/ml
[12] = target: recombinant UBE3A protein (Homo sapiens (Human)) (UniProt Q05086); experiment: 2-step Simoa; capture GTX; UBE3A 0.1 ng/ml
[13] = target: recombinant UBE3A protein (Homo sapiens (Human)) (UniProt Q05086); experiment: 2-step Simoa; capture MS 3E5; UBE3A 10 ng/ml
[14] = target: recombinant UBE3A protein (Homo sapiens (Human)) (UniProt Q05086); experiment: 2-step Simoa; capture GTX; UBE3A 10 ng/ml
[15] = target: recombinant UBE3A protein (Homo sapiens (Human)) (UniProt Q05086); experiment: 3-step Simoa; capture Novus; UBE3A 1 ng/ml
[16] = target: recombinant UBE3A protein (Homo sapiens (Human)) (UniProt Q05086); experiment: 2-step Simoa; capture Novus; UBE3A 0.1 ng/ml
[17] = target: recombinant UBE3A protein (Homo sapiens (Human)) (UniProt Q05086); experiment: 2-step Simoa; capture Novus; UBE3A 0.01 ng/ml
[18] = target: recombinant UBE3A protein (Homo sapiens (Human)) (UniProt Q05086); experiment: 3-step Simoa; capture MS 3E5; UBE3A 0.010 ng/ml
[19] = target: recombinant UBE3A protein (Homo sapiens (Human)) (UniProt Q05086); experiment: 3-step Simoa; capture GTX; UBE3A 10 ng/ml
[20] = target: recombinant UBE3A protein (Homo sapiens (Human)) (UniProt Q05086); experiment: 3-step Simoa; capture Novus; UBE3A 0.01 ng/ml
[21] = target: recombinant UBE3A protein (Homo sapiens (Human)) (UniProt Q05086); experiment: 2-step Simoa; capture Novus; UBE3A 1 ng/ml
[22] = target: recombinant UBE3A protein (Homo sapiens (Human)) (UniProt Q05086); experiment: 2-step Simoa; capture MS 3E5; UBE3A 0.01 ng/ml
[23] = target: recombinant UBE3A protein (Homo sapiens (Human)) (UniProt Q05086); experiment: 3-step Simoa; capture Novus; UBE3A 10 ng/ml
[24] = target: recombinant UBE3A protein (Homo sapiens (Human)) (UniProt Q05086); experiment: 3-step Simoa; capture GTX; UBE3A 0.1 ng/ml

Chain of UniProt Q05086 (Q05086 whole entry): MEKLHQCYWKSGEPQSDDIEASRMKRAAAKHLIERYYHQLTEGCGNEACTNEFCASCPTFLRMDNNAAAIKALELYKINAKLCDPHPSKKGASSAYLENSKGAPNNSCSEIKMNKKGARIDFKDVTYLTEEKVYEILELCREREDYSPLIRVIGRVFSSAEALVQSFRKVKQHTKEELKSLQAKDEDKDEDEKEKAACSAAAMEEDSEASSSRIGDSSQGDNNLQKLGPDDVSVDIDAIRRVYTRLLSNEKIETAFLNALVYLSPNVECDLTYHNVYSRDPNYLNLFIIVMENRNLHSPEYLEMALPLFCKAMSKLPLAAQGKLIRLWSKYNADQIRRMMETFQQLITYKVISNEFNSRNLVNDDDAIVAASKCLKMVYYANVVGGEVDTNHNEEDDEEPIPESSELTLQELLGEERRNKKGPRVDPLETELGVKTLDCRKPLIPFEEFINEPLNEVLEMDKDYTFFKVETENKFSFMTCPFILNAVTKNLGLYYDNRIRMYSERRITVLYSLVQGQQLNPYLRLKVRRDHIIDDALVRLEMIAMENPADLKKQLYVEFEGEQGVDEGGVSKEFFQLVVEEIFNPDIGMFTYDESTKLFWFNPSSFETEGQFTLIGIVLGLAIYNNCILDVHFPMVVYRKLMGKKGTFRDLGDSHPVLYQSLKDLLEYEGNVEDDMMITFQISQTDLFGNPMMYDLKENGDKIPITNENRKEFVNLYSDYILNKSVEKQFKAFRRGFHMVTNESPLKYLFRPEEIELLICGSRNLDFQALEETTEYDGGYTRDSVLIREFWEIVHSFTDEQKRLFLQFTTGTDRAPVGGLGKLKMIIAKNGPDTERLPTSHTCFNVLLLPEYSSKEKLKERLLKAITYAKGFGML

Substance: 2F6 (WH0007337M1-100 ug, Millipore-Sigma) (antibody)
- AEB1 [1]: 0.0191
- AEB2 [1]: 0.018
- Ave AEB [1]: 0.0186
- Signal to Background [1]: 1.12
- AEB1 [2]: 0.0409
- AEB2 [2]: 0.0476
- Ave AEB [2]: 0.0443
- Signal to Background [2]: 1
- AEB1 [3]: 0.0965
- AEB2 [3]: 0.095
- Ave AEB [3]: 0.0957
- Signal to Background [3]: 1.04
- AEB1 [4]: 0.043
- AEB2 [4]: 0.0459
- Ave AEB [4]: 0.0445
- Signal to Background [4]: 1.01
- AEB1 [5]: 0.0234
- AEB2 [5]: 0.0226
- Ave AEB [5]: 0.023
- Signal to Background [5]: 1.39
- AEB1 [6]: 0.0078
- AEB2 [6]: 0.0073
- Ave AEB [6]: 0.0075
- Signal to Background [6]: 0.99
- AEB1 [7]: 0.0269
- AEB2 [7]: 0.0251
- Ave AEB [7]: 0.026
- Signal to Background [7]: 1.09
- AEB1 [8]: 0.0965
- AEB2 [8]: 0.0944
- Ave AEB [8]: 0.0955
- Signal to Background [8]: 1.04
- AEB1 [9]: 0.0475
- AEB2 [9]: 0.045
- Ave AEB [9]: 0.0462
- Signal to Background [9]: 0.92
- AEB1 [10]: 0.009
- AEB2 [10]: 0.0088
- Ave AEB [10]: 0.0089
- Signal to Background [10]: 1.17
- AEB1 [11]: 0.0203
- AEB2 [11]: 0.0195
- Ave AEB [11]: 0.0199
- Signal to Background [11]: 2.62
- AEB1 [12]: 0.0906
- AEB2 [12]: 0.0965
- Ave AEB [12]: 0.0936
- Signal to Background [12]: 1.02
- AEB1 [13]: 0.0582
- AEB2 [13]: 0.0565
- Ave AEB [13]: 0.0574
- Signal to Background [13]: 3.46
- AEB1 [14]: 0.109
- AEB2 [14]: 0.109
- Ave AEB [14]: 0.109
- Signal to Background [14]: 1.19
- AEB1 [15]: 0.0277
- AEB2 [15]: 0.024
- Ave AEB [15]: 0.0259
- Signal to Background [15]: 1.08
- AEB1 [16]: 0.047
- AEB2 [16]: 0.0451
- Ave AEB [16]: 0.046
- Signal to Background [16]: 0.93
- AEB1 [17]: 0.0511
- AEB2 [17]: 0.0431
- Ave AEB [17]: 0.0471
- Signal to Background [17]: 0.95
- AEB1 [18]: 0.0052
- AEB2 [18]: 0.0068
- Ave AEB [18]: 0.006
- Signal to Background [18]: 0.792
- AEB1 [19]: 0.047
- AEB2 [19]: 0.0463
- Ave AEB [19]: 0.0466
- Signal to Background [19]: 1.05
- AEB1 [20]: 0.0221
- AEB2 [20]: 0.0242
- Ave AEB [20]: 0.0232
- Signal to Background [20]: 0.97
- AEB1 [21]: 0.048
- AEB2 [21]: 0.0444
- Ave AEB [21]: 0.0462
- Signal to Background [21]: 0.93
- AEB1 [22]: 0.0177
- AEB2 [22]: 0.016
- Ave AEB [22]: 0.0168
- Signal to Background [22]: 1.01
- AEB1 [23]: 0.0249
- Ave AEB [23]: 0.0249
- Signal to Background [23]: 1.04
- AEB1 [24]: 0.0432
- AEB2 [24]: 0.0414
- Ave AEB [24]: 0.0423
- Signal to Background [24]: 0.96
